Experimental data taken from PMC7610252 (Biochemistry, 2017).
One block for each molecule: values may come before it.

B1: FixC subunit of the FixABCX complex from Azotobacter vinelandii (natural protein, UniProt P53572 2-427, looked up)
chain: AERFDVIVVGAGMAGNAAAYTLAKGGLKVLQIERGETPGSKNVQGAILYADAIEKIIPDFRDDAPLERHLIEQRVWVMDDASYGYHYRSEDFNKPPYNRYTIIRVHFDQWFNKKAREAGVLTICETRHDLLIEGGKVVGVRTDRQGGEVRADAVILADGVNSRLAVKAGFSRDQPENWALAVKEIHFLPQETMEARFNIGEEEAAIEMAGKIDAGMMGTGFLYTNKESITLGVGCMLSDFKQQKISPYELLDRMKTHPSIAPLIAGSDMKEYAAHLIPEGGYNAIPQVYGDGWMIAGDAPIRHGIHREGSNLAMTTGMLAAQTLVELRAADKPFSAANLAEYKKKLDDSFVMKDLKKYRRMPEIFHKNKQFFTTYPDLLSRAAQTLIRVDGVDKKTKEKEIKKSFIGLRSLFGLIGDAFKFWRAVE
B3: FixB subunit of the FixABCX complex from Azotobacter vinelandii (natural protein, UniProt P53574 2-360, looked up)
chain: SEQPKKPTKKKVELDPRFVDVRHVWVCIESERGVVHPVSWELLGEGRKSVDALGGELYGVVICGPGERGKEICGEPVQHGADKAYLLQHEILRDYRNEPYTKALTDLVTATQPEILMLGATTLGRDLAGSVATTLGTGLVADCTELVIDTETRNLASTRPTFDGSLLCKPSSAQRHRPQMATVRPRMAMPEPDASRSGEIIEVPFSMIETDIITKVLEFIPDDTRDKPNLPFADIIVAGGRGLRNQENFQLVWDLAKVLGAEVGASRPIVQAGWAELDRQVGQSGKTVRPKLYIAAGISGAIQHRVGMDGADVIIAINTDPNAPIFDFAHYGIVGNAITVLPALTEAFKARLGQLKKAG

What was measured:
[1] = molecular target: FixAB from Rhodospirillum rubrum (Rhodospirillum rubrum, UniProt Q6US86+Q6US87); assay: transient absorption spectroscopy of bound flavin; type: binding; settings: FAD-reconstituted, as-isolated oxidized state; room temperature
[2] = molecular target: T1, FixX subunit of the FixABCX complex from Azotobacter vinelandii (Azotobacter vinelandii, UniProt P53658 1-94); assay: co-purification
T1 sequence (looked up): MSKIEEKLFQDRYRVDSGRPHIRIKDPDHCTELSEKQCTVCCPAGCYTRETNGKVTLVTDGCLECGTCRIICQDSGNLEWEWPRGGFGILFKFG

[3] = molecular target: B3; assay: co-purification
[4] = molecular target: B1; assay: co-purification

Molecule: Cc1cc2nc3c(=O)[nH]c(=O)nc-3n(C[C@H](O)[C@H](O)[C@H](O)COP(=O)(O)OP(=O)(O)OC[C@H]3O[C@@H](n4cnc5c(N)ncnc54)[C@H](O)[C@@H]3O)c2cc1C [FAD]
- transient absorption spectroscopy of bound flavin [1]: two ASQ species can be formed in the FixAB unit, consistent with the presence of two flavins

Molecule: B1
- stoichiometry N [2]: 1

- stoichiometry N [3]: 1
B2: FixA subunit of the FixABCX complex from Azotobacter vinelandii (natural protein, UniProt P53576 1-281, looked up)
chain: MHSVVCIKQLPDSAQIRVHPVTNTIMRQGVPAIINPYDLFALEEALRLKDKFGGTVTVVTMGPPMAEAALRKCLSFGADDAILVSDRAFAGSDTLATSYALSAVIRKIMEDMPVDLIFTGKQTIDGDTAQVGPGIAKRLDYQLLTYVSRIVDVDTAKKEIQVERRAEGGVQLLETSLPCLITMLEGTNEMRFGDLDDLFRAARHELKVWDRVAAGIDTVEMIGLKGSPTVVSKVFAPKPRSKRAELIESHDSDPKNLAEAALAKLFTQHPNLEQEIAKRAV

Molecule: B3
- stoichiometry N [4]: 1
